The text below walks through data of article PMC8875297.

Read-outs that look alike come from different tables or passages of the source.

As for cyclin D1: T286A, under “phosphorylation at T286”, the degradation_or_half_life result is on record as “decreases” and the other result is given as “abolishes”.
On to cyclin D1: MLN4924, for which the degradation_or_half_life result (ubiquitination at K269) was “decreases”.
The same measure, in the same setting: to “cyclin D1: AMBRA1 depletion (siRNA, AMBRA1-/-, auxin-inducible degron)” belongs “decreases”.
